Measurements from paper PMC3637500.

B1: Myc-tagged full-length Gab1 (wild type) [mouse] / GST-PTP1B-D181A (substrate-trapping mutant of PTP1B, GST fusion protein) [mouse] (parent)
chain 1: MSGGEVVCSGWLRKSPPEKKLKRYAWKRRWFVLRSGRLTGDPDVLEYYKNDHAKKPIRIIDLNLCQQVDAGLTFNKKEFENSYIFDINTIDRIFYLVADSEEDMNKWVRCICDICGFNPTEEDPVKPLTGSSQAPVDSPFAISTAPASSQMEASSVALPPPYQVISLPPHPDTLGLQDDPQDYLLLINCQSKKPEPNRTLFDSAKPTFSETDCNDNVPSHQTPASSQSKHGMNGFFQQQMMYDCPPSRLTSVSGESSLYNLPRSYSHDVLPKESPSSTEADGELYTFNTPSGTAGVETQMRHVSISYDIPPTPGNTYQIPRTFPESTLGQSSKLDTIPDIPPPRPPKPHPTHDRSPVETCGVPRTASDTDSSYCIPPPAGMTPSRSNTISTVDLNKLRKDASSQDCYDIPRTFPSDRSSSLEGFHSQYKIKSVLTAGGVSGEELDENYVPMNPNSPPRQHSGSFTEPIQEPNYVPMTPGTFDFSSFGMQVPPPAHMGFRSSPKTPPRRPVPVADCEPPPVDRNLKPDRKVKPAPLDIKPLSEWEELQAPVRSPITRSFARDSSRFPMSPRPDSVHSTTSSSDSHDSEENYVPMNPNLSGEDPNLFASNSLDGGSSPMNKPKGDKQVEYLDLDLDSGKSTPPRKQKSSGSGSSMADERVDYVVVDQQKTLALKSTREAWTDGRQSTESETPTKNVK
chain 2: MEMEKEFEEIDKAGNWAAIYQDIRHEASDFPCKVAKLPKNKNRNRYRDVSPFDHSRIKLHQEDNDYINASLIKMEEAQRSYILTQGPLPNTCGHFWEMVWEQKSRGVVMLNRIMEKGSLKCAQYWPQQEEKEMVFDDTGLKLTLISEDVKSYYTVRQLELENLTTKETREILHFHYTTWPAFGVPESPASFLNFLFKVRESGSLSLEHGPIVVHCSAGIGRSGTFCLADTCLLLMDKRKDPSSVDIKKVLLEMRRFRMGLIQTADQLRFSYLAVIEGAKFIMGDSSVQDQWKELSREDLDLPPEHVPPPPRPPKRTLEPHNGKCKELFSSHQWVSEETCGDEDSLAREEGRAQSSAMHSVSSMSPDTEVRRRMVGGGLQSAQASVPTEEELSSTEEEHKAHWPSHWKPFLVNVCMATLLATGAYLCYRVCFH

Variants of: B1
Assay: GST pull-down, anti-Myc immunoblot densitometry
Conditions: with GST-PTP1B-D181A (substrate-trapping mutant of PTP1B, GST fusion protein) [mouse]; Gab1 expressed in HEK-293 T cells, pervanadate treatment; normalized to lysate loading control; parent: 100; read off a plot

Variant | percent of parent [%]
chain 1 Y285F | 180
chain 1 Y448F | 170
chain 1 Y473F | 270
chain 1 Y407F | 160
chain 1 Y373F | 200

More lines, now with the values ahead:

percent of parent [%] | Variant
150 | chain 1 Y660F
310 | chain 1 Y590F
240 | chain 1 Y628F
